Biological target: the unphosphorylated T-PY motif (Smad2 or Smad3 peptide)
Assay: ITC

“recombinant Nedd4L WW2 domain (domain or fragment)” showed a fold lower affinity than for the pT-PY motif peptide of 7 to 15 fold.
